Data from patent publication US9968935B2, “Devices for cell assays” (Platypus Technologies, LLC, priority 2007, dated 2018).

System: HT-1080 cells
Assay: Adherence and morphology of HT-1080 cells on photoimmobilized hyaluronic acid, before and after hyaluronidase treatment
Type: cell-based
Settings: 30 minute treatment, 50 microliters of 1000 U/ml, wells not phototreated with HA
Method: This example describes the ability to block adhesion of HT-1080 cells to a surface coated with hyaluronic acid (HA). The HA was functionalized with a photoactive linker and immobilized to the bottom of a well in a tissue culture plate. The material was prepared by reacting the carboxyl group of HA disaccharides with the amine group of a heterobifunctional crosslinker (4-[p-azidosalicylamido]butylamine, ASBA) via carbodiimide chemistry. The other end of the ASBA crosslinker contains a photoactive group, so this reaction renders the HA photoactive. […] Briefly, the HA was dissolved in MES buffer and reacted with EDC and Sulfo-NHS for 15 min at room temperature. The pH of the buffer was adjusted to ca. 7.0 with concentrated PBS and ASBA was added to the solution and allowed to react for 2 h at room temperature in a light-proof vial. The reaction was quenched using 50 mM Tris. Unreacted components and reaction by-products were removed via dialysis against diH2O using a 3,000 MW exclusion. The reaction product was protected from exposure to light during lyophilization. Three species of photoactive HA were prepared that varied according to the molecular weight of the HA chains: low, medium and high MW chains.
The lyophilized, photoactive HA was reconstituted in PBS and adjusted to a working concentration of 0.2 mg/ml. […]

Hyaluronidase was tested, and the “effect of hyaluronidase on cells attached to control wells without HA (morphology, toxicity)” value was “did not have a significant effect” and the “effect of hyaluronidase on cells attached to control wells without HA (morphology, toxicity)” value (listed as HA-ase) was “does not cause any gross morphological changes or have any toxic effects”.
